Results on two molecules are retold here after US20170306037A1 (Novartis, published 2017).

In assay [1] the target is T1, human GITR expressed on cells (human, UniProt Q9Y5U5 27-241).
T1 sequence: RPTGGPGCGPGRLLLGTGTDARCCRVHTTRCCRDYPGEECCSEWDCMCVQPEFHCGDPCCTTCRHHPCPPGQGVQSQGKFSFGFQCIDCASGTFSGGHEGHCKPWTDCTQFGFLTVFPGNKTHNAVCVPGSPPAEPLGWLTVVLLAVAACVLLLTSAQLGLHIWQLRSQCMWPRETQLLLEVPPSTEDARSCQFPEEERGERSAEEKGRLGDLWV
The assay can be described thus: cell-based or functional assay.

The target of assay [2] is cyno GITR (cGITR), form not stated (cynomolgus monkey). Briefly: Biacore (SPR), IgG.
The next assay concerns the target CD40 (human, UniProt P25942). Briefly: specificity ELISA, bacterial lysate on HisGrab nickel plate. How it is done: (§1) For the specificity ELISA, a crude cell lysate was made from bacteria expressing members of the TNFRSF family. To prevent nonspecific binding to the plate 50 μL of 5% BSA was added per mL of bacterial lysate. […] The plate was then rinsed three times with PBST, then MAB was diluted to 0.5 μg/mL in 10% FBS in PBS and 100 μL was added to each well. The plate was incubated for 1 hour at room temperature and then rinsed three times with PBST. Anti-human kappa antibody (Sigma #A7164) conjugated to HRP was diluted 1:5000 in 1:1 PBST: 10% FBS in PBS and 100 μL added to each well. The plate was incubated for 1 hour at room temperature, and then washed three times with PBST. 100 μL of SureBlue TMB substrate was added to each well and the plate was incubated for about 10 min at room temperature before stopping the reaction with 100 μL /well of 2N H₂SO₄.
In general terms: ELISA stands for enzyme-linked immunosorbent assay.

In the next assay the target is T2, HVEM (human, UniProt Q92956).
T2 sequence (receptor, looked up): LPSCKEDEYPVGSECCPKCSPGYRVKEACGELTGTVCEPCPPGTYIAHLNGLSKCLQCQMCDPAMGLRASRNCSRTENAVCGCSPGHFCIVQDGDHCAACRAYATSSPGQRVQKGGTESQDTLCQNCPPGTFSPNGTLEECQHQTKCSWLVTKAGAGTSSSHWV
Described as above. The method, then:
as §1

A further assay has as its target T3, OPG (human, UniProt O00300).
T3 sequence (receptor, looked up): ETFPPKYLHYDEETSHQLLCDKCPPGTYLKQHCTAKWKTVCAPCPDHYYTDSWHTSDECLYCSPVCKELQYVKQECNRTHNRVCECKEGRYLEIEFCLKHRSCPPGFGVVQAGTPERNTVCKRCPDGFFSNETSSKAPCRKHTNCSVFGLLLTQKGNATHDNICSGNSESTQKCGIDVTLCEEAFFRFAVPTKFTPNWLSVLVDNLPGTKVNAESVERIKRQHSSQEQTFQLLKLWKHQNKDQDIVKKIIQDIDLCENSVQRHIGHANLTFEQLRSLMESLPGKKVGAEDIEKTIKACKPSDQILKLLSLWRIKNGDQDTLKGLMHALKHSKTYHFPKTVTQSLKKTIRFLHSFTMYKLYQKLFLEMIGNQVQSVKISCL
The description is as above. How it is done:
as §1

The next assay deals with T4, DcR1 (human, UniProt O14798).
T4 sequence (receptor, looked up): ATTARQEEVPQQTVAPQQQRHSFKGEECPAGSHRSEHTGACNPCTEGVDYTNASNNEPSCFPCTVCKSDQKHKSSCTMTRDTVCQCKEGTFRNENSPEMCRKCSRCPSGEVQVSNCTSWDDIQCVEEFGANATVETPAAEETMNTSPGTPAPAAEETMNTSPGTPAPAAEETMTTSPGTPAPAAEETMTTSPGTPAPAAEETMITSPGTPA
The description is as above. The method, then: as §1

For a further assay, the target named is T5, DcR2 (human, UniProt Q9UBN6).
T5 sequence (receptor, looked up): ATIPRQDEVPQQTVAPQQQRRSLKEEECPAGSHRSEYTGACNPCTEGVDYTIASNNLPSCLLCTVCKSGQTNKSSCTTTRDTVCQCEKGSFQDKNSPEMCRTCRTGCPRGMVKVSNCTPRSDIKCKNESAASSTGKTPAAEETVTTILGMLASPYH
The assay is described as above. The method, then: as §1

Another assay concerns the target T6, DR4 (human, UniProt O00220).
T6 sequence (receptor, looked up): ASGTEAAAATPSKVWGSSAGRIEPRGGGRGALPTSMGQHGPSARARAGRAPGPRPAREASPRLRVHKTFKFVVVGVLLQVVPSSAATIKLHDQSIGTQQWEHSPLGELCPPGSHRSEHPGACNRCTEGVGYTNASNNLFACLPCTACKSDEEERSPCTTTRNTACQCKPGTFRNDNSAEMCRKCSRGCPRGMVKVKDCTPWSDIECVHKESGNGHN
The assay is described as above. How it is done:
as §1

The next assay deals with T7, CD30 (human, UniProt P28908).
T7 sequence (receptor, looked up): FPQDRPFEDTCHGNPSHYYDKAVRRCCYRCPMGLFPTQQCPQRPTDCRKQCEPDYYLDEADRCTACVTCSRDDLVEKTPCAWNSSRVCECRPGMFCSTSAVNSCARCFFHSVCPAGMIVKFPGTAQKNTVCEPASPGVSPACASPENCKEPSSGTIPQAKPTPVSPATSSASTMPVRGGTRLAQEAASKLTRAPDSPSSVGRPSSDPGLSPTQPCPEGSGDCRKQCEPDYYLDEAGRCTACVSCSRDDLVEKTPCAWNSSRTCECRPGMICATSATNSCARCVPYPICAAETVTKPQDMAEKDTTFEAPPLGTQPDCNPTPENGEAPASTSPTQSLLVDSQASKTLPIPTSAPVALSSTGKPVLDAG
The description is as above. The method, then:
as §1

The target in a further assay is T8, BAFFR (human, UniProt Q96RJ3).
T8 sequence (receptor, looked up): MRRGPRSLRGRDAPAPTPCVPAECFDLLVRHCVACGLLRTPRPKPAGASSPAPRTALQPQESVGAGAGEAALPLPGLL
Described as above. The method, then:
as §1

Sequence of CD40 (P25942 21-193 limits assumed): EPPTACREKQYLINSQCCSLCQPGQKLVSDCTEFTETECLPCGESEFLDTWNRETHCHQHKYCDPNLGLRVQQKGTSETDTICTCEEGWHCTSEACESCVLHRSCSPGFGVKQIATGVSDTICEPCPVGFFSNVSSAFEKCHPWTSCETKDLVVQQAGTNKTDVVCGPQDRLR

B1: MAB4 (IgG1 kappa) (antibody, V domains shown)
VH: EVQLVESGGGLVQSGGSLRLSCAASGFSLSSYGVDWVRQAPGKGLEWVGVIWGGGGTYYASSLMGRFTISRDNSKNTLYLQMNSLRAEDTAVYYCAKHAYGHDGGFAMDYWGQGTLVTVSS
VL: EIVMTQSPATLSVSPGERATLSCRASESVSSNVAWYQQRPGQAPRLLIYGASNRATGIPARFSGSGSGTDFTLTISRLEPEDFAVYYCGQSYSYPFTFGQGTKLEIKR
Usually Kd stands for the free concentration of one partner at which half of the binding sites on the other are occupied at equilibrium, for simple one-to-one binding. Higher therefore signals lower affinity. Take B1: the “EC50, NFκB-luciferase reporter in 293 cells overexpressing human GITR, antibody cross-linked” value in [1] is around 2.5 nM. This molecule also displayed a dissociation constant Kd in [2] of 1.78 nM. For the same molecule, the binding result with CD40, with HVEM, with OPG, with DcR1, with DcR2 and with DR4 was “no binding (tested: not on the sheet; paragraph 335: 0.5 µg/mL)” each time. Further, the binding result with CD30 and with BAFFR was “no binding (tested: not on the sheet; paragraph 335: 0.5 µg/mL)” each time.

B2: MAB5 (IgG1 kappa) (antibody, V domains shown)
VH: EVQLVESGGGLVQSGGSLRLSCAASGFSLSSYGVDWVRQAPGKGLEWLGVIWGGGGTYYTSSLMGRFTISRDNSKNTLYLQMNSLRAEDTAVYYCAKHAYGHDGGFAMDYWGQGTLVTVSS
VL: EIVMTQSPATLSVSPGERATLSCRASESVSSNVAWYQQRPGQAPRLLIYGASNRATGIPARFSGSGSGTDFTLTISRLEPEDFAVYYCGQSYSYPFTFGQGTKLEIKR
notes: also called MABS (misprint of MAB5)
Turning to B2, the “EC50, NFκB-luciferase reporter in 293 cells overexpressing human GITR, antibody cross-linked” value in [1] is around 2.5 nM. In assay [2], this molecule displayed a dissociation constant Kd of 1.87 nM. The binding result with CD40, with HVEM, in the assay with OPG, with DcR1, in the assay with DcR2 and with DR4 was “no binding (tested: not on the sheet; paragraph 335: 0.5 µg/mL)” each time. The binding result with CD30 and with BAFFR was “no binding (tested: not on the sheet; paragraph 335: 0.5 µg/mL)” throughout.
